Assay results published in IntAct's records for PubMed 22056926.

B1: Cell division protein ZapB (Escherichia coli (strain K12)), P0AF36 (parent)
chain: MTMSLEVFEKLEAKVQQAIDTITLLQMEIEELKEKNNSLSQEVQNAQHQREELERENNHLKEQQNGWQERLQALLGRMEEV
partner: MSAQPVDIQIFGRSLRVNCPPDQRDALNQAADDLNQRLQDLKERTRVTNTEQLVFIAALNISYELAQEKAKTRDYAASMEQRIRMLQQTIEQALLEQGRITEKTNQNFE

Variants of: B1
Details: with zapa_ecoli zapA

Effect of a mutation on the interaction, decreasing interaction strength:
S4A;L5A
K10A;L11A
F8A;E9A
